Publication PMC4775219 (eLife, 2016)

Biological target: T1, Full-length H-Ras (SNAPtag-(GAGS)2x-MBP-H-Ras-DoubleHisTag) (human, UniProt P01112 1-189, SNAP-Cell 430 dye on the SNAP-tag)
T1 construct: H-Ras GTPase, human, full length; loaded with GDP or GTP as the experiment says; Held on Ni beads by the C-terminal double His tag; The nucleotide state (GDP or GTP) is a condition of the assay; also called wild-type Ras; WT Ras; source: E. coli BL21(T1R), purified (Ni-NTA, amylose, gel filtration Superdex S200); not shown: SNAP-tag, N-terminal, kept; DoubleHisTag (10xHis-(GAGS)3x-6xHis), …
Test: recruitment of fluorescent effector to Ras-loaded beads, spinning disk confocal microscopy; two competing effectors, each with its own fluorophore, in equivalent amounts on the same Ras-loaded beads; 2 uM RasGRF GEF step input, 5 mM GTP; GAP-free or with NF1-GAP
Conditions: both partners purified

B1: RBD from the A-Raf kinase (SNAPtag-(GAGS)2x-MBP-ARafRBD-StrepII) (domain or fragment, UniProt P10398 19-91, looked up)
chain: GTVKVYLPNKQRTVVTVRDGMSVYDSLDKALKVRGLNQDCCVVYRLIKGRKTVTAWDTAIAPLDGEELIVEVL
modifications: SNAP-Surface 488 or SNAP-Surface 549 dye on the SNAP-tag
notes: source: E. coli BL21(T1R), purified (Streptactin, amylose, gel filtration Superdex S75); not shown: SNAP-tag, N-terminal, kept
With B1 as the binder, how does the “output amplitude, fold lower than C-Raf RBD (GAP-free two-effector network)” value read?
Its value is 20 times lower.
